Kd data for eleven sequences are collected here from the Immune Epitope Database (IEDB).

Assay [1] addresses HLA-A*02:01. Briefly: IEDB peptide-MHC binding, purified MHC/direct/fluorescence; filed as Kd, often an IC50 or EC50 that approximates it; ≥ and ≤ were set here for values at or beyond the usual limits of such assays.
The target of assay [2] is HLA-A*69:01. Described as above.
The target in assay [3] is HLA-C*03:03. Described as above.
Assay [4] deals with HLA-B*18:01. The description is as above. As to conditions: source organism: Influenza A virus (A/Turkey/MO/24093/99(H1N2)).
For assay [5], the target named is HLA-B*40:01. The assay is described as above. Conditions: source organism: Influenza A virus (A/Turkey/MO/24093/99(H1N2)).
For assay [6], the target named is HLA-B*44:02. Described as above.
Assay [7] has as its target HLA-C*07:02. Described as above.
For assay [8], the target named is HLA-B*15:42. Briefly: IEDB peptide-MHC binding, purified MHC/competitive/fluorescence; filed as Kd, often an IC50 or EC50 that approximates it; ≥ and ≤ were set here for values at or beyond the usual limits of such assays. As to conditions: source organism: Influenza A virus (A/Fort Monmouth/1/1947-mouse adapted(H1N1)).
Assay [9] concerns the target HLA-B*45:06. The assay is described as above. Conditions: source organism: Influenza A virus (A/Fort Monmouth/1/1947-mouse adapted(H1N1)).
Assay [10] has as its target HLA-B*83:01. Described as above. As to conditions: source organism: Influenza A virus (A/Fort Monmouth/1/1947-mouse adapted(H1N1)).
The target in assay [11] is HLA-A*02:01. Described as above. Conditions: source organism: Entamoeba histolytica HM-1:IMSS.
For assay [12], the target named is HLA-A*02:11. The assay is described as above. As to conditions: source organism: Entamoeba histolytica HM-1:IMSS.
Assay [13] concerns the target HLA-A*02:12. Described as above. Conditions: source organism: Entamoeba histolytica HM-1:IMSS.
For assay [14], the target named is HLA-A*02:16. Described as above. Conditions: source organism: Entamoeba histolytica HM-1:IMSS.
Assay [15] has as its target HLA-A*02:19. Described as above. Conditions: source organism: Entamoeba histolytica HM-1:IMSS.
Assay [16] deals with HLA-A*03:01. The assay is described as above. Conditions: source organism: Entamoeba histolytica HM-1:IMSS.
The target in assay [17] is HLA-A*26:01. Described as above. Conditions: source organism: Entamoeba histolytica HM-1:IMSS.
Assay [18] deals with HLA-A*68:02. Described as above.
The target of assay [19] is HLA-A*69:01. The description is as above. Conditions: source organism: Entamoeba histolytica HM-1:IMSS.
Assay [20] concerns the target HLA-B*15:01. The description is as above. Conditions: source organism: Entamoeba histolytica HM-1:IMSS.
Assay [21] has as its target HLA-B*27:03. Described as above. Conditions: source organism: Entamoeba histolytica HM-1:IMSS.
In assay [22] the target is HLA-B*39:01. The description is as above. Conditions: source organism: Entamoeba histolytica HM-1:IMSS.
Assay [23] addresses HLA-B*46:01. The description is as above. Conditions: source organism: Entamoeba histolytica HM-1:IMSS.
Assay [24] addresses HLA-B*51:01. The assay is described as above. Conditions: source organism: Entamoeba histolytica HM-1:IMSS.
Assay [25] has as its target HLA-B*57:01. Described as above. Conditions: source organism: Entamoeba histolytica HM-1:IMSS.
For assay [26], the target named is HLA-A*01:01. Briefly: IEDB peptide-MHC binding, purified MHC/direct/fluorescence; filed as Kd, often an IC50 or EC50 that approximates it; ≥ and ≤ were set here for values at or beyond the usual limits of such assays. As to conditions: source organism: Yersinia pestis.
Assay [27] has as its target HLA-A*03:01. The assay is described as above. Conditions: source organism: Yersinia pestis.
The target of assay [28] is HLA-A*11:01. The assay is described as above. As to conditions: source organism: Yersinia pestis.
Assay [29] addresses HLA-A*26:01. The description is as above. As to conditions: source organism: Yersinia pestis.
Assay [30] concerns the target HLA-A*31:01. Described as above. Conditions: source organism: Yersinia pestis.
Assay [31] addresses HLA-B*07:02. The description is as above. Conditions: source organism: Yersinia pestis.
Assay [32] concerns the target HLA-B*08:01. Described as above. As to conditions: source organism: Yersinia pestis.
Assay [33] has as its target HLA-B*15:01. The assay is described as above. As to conditions: source organism: Yersinia pestis.
Assay [34] has as its target HLA-B*27:05. Described as above. Conditions: source organism: Yersinia pestis.
The target in assay [35] is HLA-B*35:01. The assay is described as above. Conditions: source organism: Yersinia pestis.
The target of assay [36] is HLA-B*58:01. Described as above. As to conditions: source organism: Yersinia pestis.
In assay [37] the target is HLA-B*51:01. Described as above. Conditions: source organism: Baboon gamma-herpesvirus.
The target in assay [38] is HLA-B*07:02. Briefly: IEDB peptide-MHC binding, purified MHC/competitive/fluorescence; filed as Kd, often an IC50 or EC50 that approximates it; ≥ and ≤ were set here for values at or beyond the usual limits of such assays.
Assay [39] concerns the target HLA-A*02:03. Briefly: IEDB peptide-MHC binding, purified MHC/direct/fluorescence; filed as Kd, often an IC50 or EC50 that approximates it; ≥ and ≤ were set here for values at or beyond the usual limits of such assays. As to conditions: source organism: Variola virus.
The target of assay [40] is HLA-A*31:01. Briefly: IEDB peptide-MHC binding, purified MHC/competitive/fluorescence; filed as Kd, often an IC50 or EC50 that approximates it; ≥ and ≤ were set here for values at or beyond the usual limits of such assays. As to conditions: source organism: Variola virus.
The mark [41] stands for this setting: source organism: Marburg virus - Musoke, Kenya, 1980.
[42] abbreviates: source organism: Human immunodeficiency virus 1.
The mark [43] stands for this setting: source organism: Yersinia pestis.
Where [44] appears, read: source organism: Camelpox virus CMS.

WLDSVIQYL: the Kd – broadly, the concentration at which binding is half-saturated – in assay [1] (setting [41]) turned out to be 0.143 µM; in assay [2] (setting [41]), 0.963 µM; in assay [3] (source organism: Orthomarburgvirus marburgense), 0.24 µM.

For the sequence MQIRGFVYF, the Kd was 0.119 µM in [4]; ≥ 20 µM in assay [5]; ≥ 20 µM in assay [6] (source organism: Influenza A virus (A/Turkey/MO/24093/99(H1N2))); ≥ 20 µM in [7] (source organism: Influenza A virus (A/Fort Monmouth/1/1947-mouse adapted(H1N1))); ≥ 5 µM in assay [8]; ≥ 5 µM in assay [9]. Further, in [10], the Kd is ≥ 5 µM.

Take WAKLLKQKW: the Kd in assay [11], in [12], in assay [13], in assay [14], in assay [15] and in assay [16] was ≥ 20 µM in each case. Besides, the Kd in assay [17], in [18] (source organism: Entamoeba histolytica HM-1:IMSS), in [19], in [20], in assay [21] and in assay [22] was ≥ 20 µM each time. For the same sequence, the Kd is ≥ 20 µM in [23], ≥ 20 µM in assay [24] and 0.227 µM in assay [25].

For LYNTVAVLY, the Kd in [7] (setting [42]) and in assay [18] (setting [42]) was ≥ 20 µM each time.

In assay [3] (source organism: Leishmania donovani), DAMENPLSL showed a Kd of 0.625 µM.

On to YGIPFPGSL, for which the Kd in assay [26] was ≥ 20 µM; in [1] (setting [43]), 14.3 µM; in assay [27] it was ≥ 20 µM; in [28], ≥ 20 µM; in [29] it was ≥ 20 µM; in assay [30] it was ≥ 20 µM. The dissociation constant Kd in assay [2] (setting [43]) is ≥ 20 µM; in [31] it was 9.76 µM; in assay [32], ≥ 20 µM; in assay [33] it was ≥ 20 µM; in [34], ≥ 20 µM; in assay [35], 0.12 µM. Further, the results for the equilibrium dissociation constant (Kd) in [6] (setting [43]), in assay [36] and in [3] (source organism: Yersinia pestis Nepal516) were ≥ 20 µM, ≥ 20 µM and ≤ 0.001 µM, respectively.

On to VPGSETMCY, for which the Kd in assay [37] and in assay [38] (source organism: human gammaherpesvirus 4) was ≥ 20 µM throughout.

Turning to HMIDKLFYV, the Kd in assay [1] (setting [44]) was ≤ 0.001 µM; in assay [39] it was ≤ 0.001 µM; in [2] (setting [44]), 0.002 µM; in assay [3] (source organism: Variola virus), 0.787 µM; in [40], 0.0215 µM.

Turning to VAYHFHEPL, the Kd in assay [3] (source organism: Mycobacterium tuberculosis variant bovis BCG str. Pasteur 1173P2) was ≤ 0.001 µM.

PPKYTPRPA: the dissociation constant (Kd) in assay [38] (source organism: Escherichia coli 536) was ≥ 20 µM.

Regarding FYYNAFHWA, in assay [7] (source organism: Homo sapiens), the Kd came to 0.813 µM. This counts as sub-micromolar.
